The text below walks through data of patent publication US9732156B2, “Methods of treating rheumatoid arthritis using antibodies to matrix metalloproteinase 9” (Gilead Biologics, Inc., priority 2012, dated 2017).

For one data set, the system named is UC. The settings on record: cited from earlier work.
Data set [1] relates to collagen-induced arthritis. As to the kind of experiment: Collagen-induced arthritis (CIA) rat model of established disease. The following applies: terminal serum, ELISA. The class given is in vivo. As for the experimental part:
(§1) This example provides additional characterizations of the animals in example 7 that were treated with either vehicle, AB0041 (in the rat model) or AB0046 (in the mouse model) at 2, 10, or 50 mg/Kg, Enbrel at 10 mg/Kg, or methotrexate (MTX) at 0.5 mg/Kg.
(§2) In addition to clinical scoring in Table 6 that was conducted in example 7, paw swelling, ankle diameter and body weights of the treated animals were measured. The measurements were conducted once a week before randomization and three times a week thereafter.
In addition, hind limbs were examined microscopically for soft-tissue changes (edema, tissue/vessel necrosis, inflammatory cell infiltration, and fibroplasias) and cartilage and bone changes (cartilage erosion, bone erosion, periosteal bone formation, synovitis, pannus formation, and joint destruction). […] The severity scores were based on global changes in each limb.
For anti-TNF-alpha scoring, the entire region of the limb anterior to the tarsal-metatarsal joint was scored. Anti-CD68 staining was evaluated using 3-4 images per limb of synovial membranes in the joints formed by the talus bone, with the scores of each membrane averaged and the value assigned as the overall inflammation score. […] Also, MMP9-expressing cells were identified as osteoclasts and cells of the monocyte/macrophage lineage.
(§3) Further, serum panel analyses of terminal serum samples were characterized using ELISA. […] AB0046 titers were measured in terminal serum samples.
(In general: In an ELISA, binding on a coated surface is turned into a signal by an enzyme label.)

For another data set, the system named is Lewis rats. The settings on record: rat, in vivo.
Data set [2] deals with DSS-induced colitis. As to the kind of experiment: DSS-induced colitis model, treatment of established disease (Example 4). The class given is in vivo, mouse. The settings on record: for reduction of the incidence of diarrhea: AUC, did not reach statistical significance; for mean endoscopy score: Day 14 (and Day 10), vs Vehicle and AC-1, AB0046 30 mg/kg IP, ENBREL 10 mg/kg IP; for histopathology: inflammation, edema, mucosal necrosis: colons at termination, compared to vehicle; for MMP9 expression in colon by IHC: three colons per group. The source says: The dextran sodium sulfate (DSS)-induced model of colitis is an accepted model for evaluation of inflammatory bowel disease therapeutics. In this model, oral administration of DSS to mice or rats results in damage to the colonic mucosa. Animals receiving DSS develop bloody diarrhea and lose weight. The inflammation and tissue degradation observed in this model is restricted to the mucosa and generally affects the entire colon. […] The localization of disease and the pathology observed in this model is considered to be reminiscent of human ulcerative colitis (UC), including similar inflammatory cell infiltrate, ulceration, and crypt abscesses.
AB0046 was used in the DSS colitis model (in a 14-day treatment model). Treatment began after 5 days of oral exposure to 3% DSS in drinking water, according to the following experimental design: disease induction with 3% DSS was carried out beginning at day 0 through day 5, with treatment beginning at day 6 (treatment details for animals in groups 1-5 given in Table 2, below); animals were sacrificed at day 14. Etanercept (marketed under the trade name ENBREL®) was used as a reference compound for the therapeutic effect of anti-TNFα therapy in this model. AC-1, an irrelevant antibody of matched isotype (IgG1), was used as a control.
The course of disease was evaluated by video endoscopy (at days 6, 10, and 14), animal weight measurements, observation of stool consistency, and post-study histopathology analysis of colons.
Video endoscopy of the lower colon was performed in a blinded fashion using a small animal endoscope; colitis was scored visually on a scale of 1-4 based on the degree of ulceration, friability, and vascularity present in the tissue. Each mouse was assigned a single score corresponding to the most severe damage observed throughout the entire length of the colon examined.
At study termination, the majority of the distal colon was excised from each animal, formalin-fixed, then embedded in paraffin and sectioned for histology. Slides were stained with hematoxylin and eosin and examined by a board-certified veterinary pathologist blinded as to treatment groups. Tissues were scored for inflammation, edema, and mucosal necrosis according to the scoring scale of 1-4 for each parameter. Sum pathology scores were calculated by summing the three individual parameter score means (inflammation, edema and necrosis).
Body weight and the incidence of diarrhea were recorded daily over the course of the study. The evaluation of body weight changes was performed by calculating the area under the curve (AUC) with the trapezoidal rule method; a similar calculation of AUC for stool consistency was performed by assigning incidence of diarrhea a score of 100 and lack of diarrhea a score of 0.
A trend for reduction of systemic disease-associated cytokines by AB0046 was observed. […] Serum MMP-9 levels were not induced (i.e., no difference between no DSS and vehicle groups; interference by drug antibody cannot be ruled out for MMP9 serum level measurements).

Data set [3] has as its target T1, MMP9 (Homo sapiens, UniProt P14780). As to the kind of experiment: Comparison of binding and inhibitory properties of anti-MMP9 antibodies. The settings on record: AB0045 compared with AB0041.
Target sequence in this assay (P14780 94-707, species assumed): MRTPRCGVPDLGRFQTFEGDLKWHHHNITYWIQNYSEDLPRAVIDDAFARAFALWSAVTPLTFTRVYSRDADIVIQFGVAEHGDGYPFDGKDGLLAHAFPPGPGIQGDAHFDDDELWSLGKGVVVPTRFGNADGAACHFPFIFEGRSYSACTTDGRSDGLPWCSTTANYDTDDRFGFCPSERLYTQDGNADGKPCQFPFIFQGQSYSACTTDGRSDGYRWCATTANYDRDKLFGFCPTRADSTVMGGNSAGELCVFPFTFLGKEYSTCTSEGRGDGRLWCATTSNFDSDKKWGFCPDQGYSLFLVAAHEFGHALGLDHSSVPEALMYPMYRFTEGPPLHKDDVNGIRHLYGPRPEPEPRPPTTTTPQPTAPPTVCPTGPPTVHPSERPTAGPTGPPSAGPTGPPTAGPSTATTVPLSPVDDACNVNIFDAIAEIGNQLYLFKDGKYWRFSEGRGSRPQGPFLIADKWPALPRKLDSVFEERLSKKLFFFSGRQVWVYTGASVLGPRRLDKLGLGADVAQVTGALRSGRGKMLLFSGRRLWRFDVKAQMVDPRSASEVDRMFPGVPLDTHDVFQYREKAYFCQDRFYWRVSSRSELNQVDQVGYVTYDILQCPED
A further data set has as its system CD4+ T cell. As to the kind of experiment: EpiScreen ex vivo human T cell activation assay (immunogenicity). The class given is cell-based. The settings on record: CD4+ T cell response, 20 healthy donors of various HLA haplotypes. Here is the method:
The potential clinical immunogenicity of the chimeric MMP9 antibody AB0041 and the humanized MMP9 antibody AB0045 was assessed. An ex vivo human T cell activation assay, the EpiScreen (Antitope, Ltd., Cambridge, UK) was used. The T cell activation in the EpiScreen assay has been correlated to the antibody/protein therapeutic responses in patients. The response of CD4+ T cell in 20 healthy donors, representing a variety of HLA haplotypes, was examined. […] A positive control of KLH induced a response in 95% of the donors, with a magnitude of 6.34+/−2.77 (mean+/−standard deviation).

Data set [4] deals with T1, MMP9. As to the kind of experiment: IHC binding of AB0045 in UC patient colon tissue. Further details: from tissue; host or cells: colon tissue (biopsies) of human ulcerative colitis patients. As for the experimental part: Biopsy samples from human patients with ulcerative colitis (UC) and healthy individuals were examined by immunohistochemistry (IHC) using the MMP9-specific antibodies. Antibodies against myeloperoxidase (MPO, a neutrophil marker; Wirtz 2007), collagen IV (COLIV, basement membranes) and CD31 (endothelial cells) were used to assess disease severity and tissue infrastructure. Staining patterns of TIMP1 and MMP2 also were examined. PMK2 (a macrophage marker) also was assessed.
Target sequence in this assay (P14780 94-707): as the sequence (P14780 94-707, species assumed) above

Data set [5] concerns DSS-induced colitis. As to the kind of experiment: DSS colitis model, prophylactic treatment (Example 5). The class given is in vivo, mouse. Here is the method:
The efficacy of AB0046 in a prophylactic setting was assessed and compared with reference agent Prednisolone. The indicated treatment was given at day −1, with the indicated dosing schedules. Induction of disease with 3% DSS was initiated at day 0 and was as described above. Animals were sacrificed at day 14.

Data set [6] relates to collagen-induced arthritis. As to the kind of experiment: CIA mouse model of rheumatoid arthritis. The class given is in vivo. Here is the method: as §1, §2
In addition, hind limbs were examined microscopically for soft-tissue changes (edema, tissue/vessel necrosis, inflammatory cell infiltration, and fibroplasias) and cartilage and bone changes (cartilage erosion, bone erosion, periosteal bone formation, synovitis, pannus formation, and joint destruction). A standard severity score was used: 0=no significant change, 1=minimal, 2=mild, 3=moderate and 4=severe. The severity scores were based on global changes in each limb.
as §3

A short description of data set [7]: Antibody titers in serum of the CIA study. The class given is in vivo, mouse. As for the experimental part: as §3

Procedure for Lewis rats: AB0041 was evaluated for safety in Lewis rats in comparison to the pan-MMP inhibitor, Marimastat, in a 28-day study.
Six rats per group were intravenously administered twice per week with either AB0041 at 50 mg/kg or Vehicle-A (10 mM sodium phosphate, pH 6.5, 140 mM sodium chloride, 0.01% Tween20). In addition, six rats per group were treated with Marimastat or Vehicle-M (50% DMSO/50% water) through a surgically implanted subcutaneous Alzet pump (Alzet, Cupertino, Calif.), which delivered at a rate of 2.5 μl/hour for a period of 28 days. The Marimastat release rate was between 6.8 to 5.7 mg/kg/day.
Animals were observed and scored daily for signs of MSS, such as reluctance to move and avoidance of the use of the hind feet. The following system was used to score resting posture, gait and willingness to move: resting posture was scored as 0 (normal), 1 (resting on one foot) or 2 (resting on neither one foot nor two feet). Gait was scored as either 0 (normal), 1 (avoids use of one hind foot) or 2 (avoids use of both hind feet). Willingness-to-move upon stimulation was scored as either 0 (normal movement), 1 (somewhat reluctant to move), 2 (moderately reluctant to move) or 3 (very reluctant to move). In addition, the body weights were recorded twice weekly.
Total scores were calculated as the sum of gait score, resting posture score and willingness-to-move score for each animal. Mean total scores per group were calculated as the average of the total scores from all individual animals per group per day.
Serum was collected from all rats on one day before and days 1, 7, 10, 14, 17, 21, 24, 28 post administration. Serum was centrifuged at 10,000×g for 10 minutes and collected for storage at −20° C. Serum was subject to multianalyte serum protein analysis (RodentMAPv2.0, IDEXX Laboratories).
Tissues and limbs from the rats were harvested and fixed in 10% neutral buffered formalin for histopathologic analysis using hematoxylin and eosin (H&E).

Take “Infliximab: chimeric therapeutic anti-TNF-alpha antibody Remicade (infliximab)”: in the data set on UC, the “patients achieving long-term remission completely free of corticosteroids” value is given as 26%; the “patients achieving remission by week 8 and remaining in remission through 54 weeks” value is given as 20%; the “patients failing to maintain response over 30 or 54 weeks” value is reported as “approximately 60%”.

Consider `CN(Cc1cnc2nc(N)nc(N)c2n1)c1ccc(C(=O)N[C@@H](CCC(=O)O)C(=O)O)cc1` [methotrexate, reference compound], for which the “serum markers (TIMP-1, GM-CSF, MIP-2, MIP-1β, M-CSF-1, OSM, CXCL10, MCP-5, IL-12p70, INF-γ, IL-12, IL-7)” value in [1] is “consistent increase in these markers”.

As to `CNC(=O)[C@@H](NC(=O)[C@H](CC(C)C)[C@H](O)C(=O)NO)C(C)(C)C` [Marimastat], the “average daily total MSS score” value in the data set with Lewis rats (Lewis, 18 day) is reported as “above 4.0”. In addition, the “average MSS score” value in the data set on Lewis rats (Lewis, 25 day) turned out to be 5.8. Further, in the data set on Lewis rats, the “H&E staining of hind knee joints” value is recorded as “histopathological evidence of fibroplasia was seen”; the “fibrosis and synovitis in limbs” value was “Fibrosis and synovitis were observed”; the “rats with slight limping, avoidance of one hind foot (gait score=1)” value is listed as “five”; the severity of fibrosis entry is listed as “mild to severe”. Also, the severity of synovitis result with Lewis rats is “mild”.

ENBREL [reference compound]: in the data set on DSS-induced colitis [2], the “reduction of the incidence of diarrhea” value is on record as “similar”; the mean endoscopy score entry is reported as “significant improvement in endoscopy scores”; the “histopathology: inflammation, edema, mucosal necrosis” value was “significantly reduced all three aspects of disease pathology”; the “MMP9 expression in colon by IHC” value is reported as “Reduction of MMP9”. For the same molecule, the “serum markers (TIMP-1, GM-CSF, MIP-2, MIP-1β, M-CSF-1, OSM, CXCL10, MCP-5, IL-12p70, INF-γ, IL-12, IL-7)” value in data set [1] is reported as “No reduction of serum markers”.

B1: AB0045: humanized variant anti-MMP9 antibody, modified IgG4 (S241P), heavy chain variant VH3 (SEQ ID NO: 7), light chain Vk4 (SEQ ID NO: 12) (antibody, V domains shown)
VH: QVQLQESGPGLVKPSETLSLTCTVSGFSLLSYGVHWVRQPPGKGLEWLGVIWTGGTTNYNSALMSRFTISKDDSKNTVYLKMNSLKTEDTAIYYCARYYYGMDYWGQGTLVTVSS
VL: DIQMTQSPSSLSASVGDRVTITCKASQDVRNTVAWYQQKPGKAPKLLIYSSSYRNTGVPDRFSGSGSGTDFTLTISSLQAEDVAVYYCQQHYITPYTFGGGTKVEIK
modifications: modified IgG4 S241P constant region
As to B1, the “binding and inhibitory properties” value in the data set with MMP9 [3] is “equivalent binding and inhibitory properties”. Further, the “donors in which a response was induced” value in the data set on CD4+ T cell is given as “did not induce response in any of the donors”. In addition, in the data set with MMP9 [4], the “binding to MMP9 by IHC” value is reported as “bound to MMP9 in UC patient colon tissue”.

B2: AB0046: mouse anti-mouse MMP9 surrogate antibody, kappa light chain (SEQ ID NO: 45), IgG1 heavy chain (SEQ ID NO: 46) (antibody, listed as Mus musculus)
heavy: MGWSSIILFLVATATGVHSQVQLQQPGSVLVRPGASVKLSCTASGYTFTSYWMNWVKQRPGQGLEWIGEIYPISGRTNYNEKFKVKATLTVDTSSSTAYMDLNSLTSEDSAVYYCARSRANWDDYWGQGTTLTVSSAKTTPPSVYPLAPGSAAQTNSMVTLGCLVKGYFPEPVTVTWNSGSLSSGVHTFPAVLQSDLYTLSSSVTVPSSTWPSETVTCNVAHPASSTKVDKKIVPRDCGCKPCICTVPEVSSVFIFPPKPKDVLTITLTPKVTCVVVDISKDDPEVQFSWFVDDVEVHTAQTQPREEQFNSTFRSVSELPIMHQDWLNGKEFKCRVNSAAFPAPIEKTISKTKGRPKAPQVYTIPPPKEQMAKDKVSLTCMITDFFPEDITVEWQWNGQPAENYKNTQPIMDTDGSYFVYSKLNVQKSNWEAGNTFTCSVLHEGLHNHHTEKSLSHSPGK
light: MSSAQFLGLLLLCFQGTRCDIQMTQTTSSLSASLGDRVTISCSASQGISNYLNWYQQKPDGTFKLLIYYTSILHSGVPSRFSGSGSGTDYSLTISNLEPEDIATYYCQQYGWLPRTFGGGTKLEIKRADAAPTVSIFPPSSEQLTSGGASVVCFLNNFYPKDINVKWKIDGSERQNGVLNSWTDQDSKDSTYSMSSTLTLTKDEYERHNSYTCEATHKTSTSPIVKSFNRNEC
modifications: CHAIN (1)...(460) AB0046 IgG1 heavy chain; CHAIN (1)...(233) AB0046 kappa light chain
B2: in the data set on DSS-induced colitis [2], the “reduction of the incidence of diarrhea” value was “about 30%”; the mean endoscopy score result is “significant improvement in mean endoscopy scores”; the “histopathology: inflammation, edema, mucosal necrosis” value was “significantly reduced all three aspects of disease pathology”; the “MMP9 expression in colon by IHC” value is on record as “reduction in MMP9 expression”. The “disease-associated increases in serum MCP-1, MCP-3 and eotaxin” value in the data set on DSS-induced colitis [2] (terminal serum) was “reduced”. For the same molecule, in the data set on DSS-induced colitis [2] (terminal serum, multianalyte ELISA), the “serum mediators KC/GRO, CXCL10, MPO, LIF, MIP-2, MCP-5” value is recorded as “systemic reduction”. Further, the “serum IL-17A” value in the data set on DSS-induced colitis [2] (terminal serum, near lower level of quantification) is “trend for a reduction”. Besides, in the data set with DSS-induced colitis [2] (terminal serum, not distinguished from AC-1 isotype control), the “serum IL-6” value is reported as “reduction”. Further, the “body weight loss (AUC)” value in the data set on DSS-induced colitis [2] (vs AC-1 isotype control or vehicle) was “significant protection against body weight loss”. Moreover, the endoscopic evaluation entry with DSS-induced colitis [5] (Day 10, 30 mg/kg IP from day −1) is listed as “efficacy of AB0046 prophylactic treatment was observed”. Also, the incidence of diarrhea entry with DSS-induced colitis [5] (prophylactic administration) is given as “reduced the incidence of diarrhea”. Also, in the data set with DSS-induced colitis [5] (study termination), the “inflammation, edema, necrosis and pathology sum score” value is “reduced inflammation, edema, and necrosis”. The “soft tissue disease, joint damage and destruction (histology)” value in [6] (50 mg/kg) was “reduced all measures of soft tissue diseases, joint damage and destruction”. Also, in data set [6] (all doses (2, 10, 50 mg/Kg)), the “qualitative and quantitative measurements of clinical disease (paw swelling, ankle diameter, body weight)” value is “significant reversal/mitigation”. In [6] (terminal serum, ELISA), the “serum markers (KC/GRO, MIP-2, GCP-2, lymphotactin, MCP-1, MCP-3, CXCL-10, OSM, MIP-1β, MIP-1γ, Apo A-1)” value is reported as “statistically significant reduction”. Further, the “antibody titer in serum” value in data set [7] (2 mg/kg dose level) is recorded as “not detectable”. In data set [7] (dosing regimens of 10 and 50 mg/kg), the “antibody titer in terminal serum” value is “measurable drug levels”.
